Results taken from patent CN116082499A (DONGGUAN PENGZHI BIOTECHNOLOGY CO LTD, dated 2023).
Numbering of substitutions follows the chain as printed.

T1: DENV-IV抗原(一种NS1蛋白，购自菲鹏) (dengue virus serotype 4 (DENV-IV), UniProt P09866 775-1126, limits assumed)
T1 construct: also called DENV-IV antigen
T1 sequence (looked up): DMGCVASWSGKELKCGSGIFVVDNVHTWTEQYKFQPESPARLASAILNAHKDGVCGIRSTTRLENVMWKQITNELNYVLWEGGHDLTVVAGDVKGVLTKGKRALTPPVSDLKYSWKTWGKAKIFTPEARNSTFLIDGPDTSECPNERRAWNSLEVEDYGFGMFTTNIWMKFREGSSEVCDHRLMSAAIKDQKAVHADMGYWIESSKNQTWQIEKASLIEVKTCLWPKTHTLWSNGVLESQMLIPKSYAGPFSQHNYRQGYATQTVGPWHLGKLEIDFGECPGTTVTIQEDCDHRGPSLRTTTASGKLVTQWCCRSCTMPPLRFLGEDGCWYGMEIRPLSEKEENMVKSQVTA

B1: DF-5M32RMb1 (antibody, mouse IgG1, kappa, V domains shown)
VH: QVQLQQSGAELARPGASVKLSCKASGYTFINYWMQWVKQRPGQGLEWIGAIYPGDGDTRYTQNFKGKAALTADKSSSTAYMQLSSLASEDSAVYYCATGTEGILDYWGQGTSVTVSS
VL: DAVMTQTPLTLSVLIGQPASLSCKSSQSLLESDGKTYLNWLFQRPGQSPKRLIYLVSKLESGVPDRFTGSGSGTEFTLKISRVEAEDLGVYYCWQATHHPLTFGTGTNLELKR
notes: also called Anti-DF 5M32; Anti-DF 5M32单克隆抗体 (recombinant)
B2: DF-5M32RMb4 (antibody, mouse IgG1, kappa, V domains shown)
VH: B1 VH with I103L
VL: B1 VL
notes: also called DF-8F13RMb4
B3: DF-5M32RMb3 (antibody, mouse IgG1, kappa, V domains shown)
VH: B1 VH with I30L
VL: B1 VL
notes: also called DF-8F13RMb3
B4: DF-5M32RMb2 (antibody, mouse IgG1, kappa, V domains shown)
VH: B1 VH with I30L, I103L
VL: B1 VL
notes: also called DF-8F13RMb2

Legend:
DENV抗原 (DENV阳性血清) [1] = biological target: T2, DENV抗原 (DENV阳性血清) (dengue virus (DENV), serotype ); test: sandwich ELISA, antibody at 1.5625 ng/ml captured on goat anti-mouse IgG, DENV-positive serum, HRP-labelled DENV mAb
T2 construct: also called DENV antigen in DENV-positive serum

DENV抗原 (DENV阳性血清) [2] = biological target: T2, DENV抗原 (DENV阳性血清); test: sandwich ELISA, antibody at 6.25 ng/ml captured on goat anti-mouse IgG, DENV-positive serum, HRP-labelled DENV mAb
DENV抗原 (DENV阳性血清) [3] = biological target: T2, DENV抗原 (DENV阳性血清); test: sandwich ELISA, antibody at 0.78125 ng/ml captured on goat anti-mouse IgG, DENV-positive serum, HRP-labelled DENV mAb
DENV抗原 (DENV阳性血清) [4] = biological target: T2, DENV抗原 (DENV阳性血清); test: sandwich ELISA, antibody at 12.5 ng/ml captured on goat anti-mouse IgG, DENV-positive serum, HRP-labelled DENV mAb
DENV-IV抗原(一种NS1蛋白，购自菲鹏) = biological target: T1, DENV-IV抗原(一种NS1蛋白，购自菲鹏)
DENV抗原 (DENV阳性血清) [5] = biological target: T2, DENV抗原 (DENV阳性血清); test: sandwich ELISA, antibody at 0 ng/ml (blank without antibody), goat anti-mouse IgG, DENV-positive serum, HRP-labelled DENV mAb
DENV抗原 (DENV阳性血清) [6] = biological target: T2, DENV抗原 (DENV阳性血清); test: sandwich ELISA, antibody at 3.125 ng/ml captured on goat anti-mouse IgG, DENV-positive serum, HRP-labelled DENV mAb

| Binder | OD (450nm, 参考630nm) (DENV抗原 (DENV阳性血清) [1]) | OD (450nm, 参考630nm) (DENV抗原 (DENV阳性血清) [2]) | OD (450nm, 参考630nm) (DENV抗原 (DENV阳性血清) [3]) | OD (450nm, 参考630nm) (DENV抗原 (DENV阳性血清) [4]) | Kd (DENV-IV抗原(一种NS1蛋白，购自菲鹏)) | koff (DENV-IV抗原(一种NS1蛋白，购自菲鹏)) | kon (DENV-IV抗原(一种NS1蛋白，购自菲鹏)) | OD (450nm, 参考630nm) (DENV抗原 (DENV阳性血清) [5]) | OD (450nm, 参考630nm) (DENV抗原 (DENV阳性血清) [6]) |
| --- | --- | --- | --- | --- | --- | --- | --- | --- | --- |
| B1 | 0.654 OD | 1.52 OD | 0.489 OD | 2.1 OD | 59.6 nM | 0.00128 s⁻¹ | 21400 M⁻¹ s⁻¹ | 0.039 OD | 0.963 OD |
| B2 | 0.631 OD | 1.49 OD | 0.482 OD | 2.01 OD | 52.9 nM | 0.00176 s⁻¹ | 33200 M⁻¹ s⁻¹ | 0.032 OD | 0.923 OD |
| B3 | 0.622 OD | 1.5 OD | 0.479 OD | 1.97 OD | 63.6 nM | 0.00186 s⁻¹ | 29300 M⁻¹ s⁻¹ | 0.043 OD | 0.952 OD |
| B4 | 0.603 OD | 1.47 OD | 0.471 OD | 2.04 OD | 57.8 nM | 0.00184 s⁻¹ | 31900 M⁻¹ s⁻¹ | 0.031 OD | 0.96 OD |
